Reference: patent US20150344570A1 (published 2015)

T1: FcγRIIb (human, UniProt P31994 43-217)
T1 construct: extracellular domain; Soluble extracellular domain with C-terminal His tag, used as analyte; also called FcgRIIb; CD32B; not shown: His tag at the C terminus
T1 sequence (looked up): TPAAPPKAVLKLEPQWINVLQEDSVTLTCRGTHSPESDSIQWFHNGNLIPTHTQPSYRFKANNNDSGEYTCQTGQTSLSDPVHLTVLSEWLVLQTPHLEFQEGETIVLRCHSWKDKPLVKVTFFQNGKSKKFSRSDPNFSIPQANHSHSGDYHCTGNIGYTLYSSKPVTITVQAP


Columns and labels:
[1] = molecular target: T1, FcγRIIb; experiment: SPR (Biacore), captured antibody, FcγR as analyte, relative binding
Protocol: (§1) The heterodimerized antibodies He Abs in which one of the H chains was introduced with an alteration were assayed for their binding activities to each activating FcγR and inhibitory FcγR according to the method described in Example 4. […] The activating FcγRs in FIGS. 26, 27, 28, and 29 are FcγRIa, FcγRIIa (R), FcγRIIa (H), and FcγRIIIa, respectively.
(§2) Analysis of interaction between objective antibody and the FcγR was carried out using Biacore T100 (GE Healthcare). HBS-EP+ (GE Healthcare) was used as the running buffer, and the measurement temperature was set to 25° C. Chips produced by immobilizing the antigen peptide by the amine coupling method to a Series S Sencor Chip CM5 (GE Healthcare), or alternatively, chips produced by allowing preliminarily biotinylated antigen peptides to interact with and immobilize onto a Series S Sensor Chip SA (certified) (GE Healthcare) were used. Antibodies of interest were captured onto an antigen peptide-immobilized chip, and allowed to interact to each FcγR diluted with running buffer. To regenerate and repeatedly use the chip, the antibodies captured on the chip were washed off by reacting 10 mM glycine-HCl, pH 1.5.

[2] = molecular target: T2, FcγRIa (human, UniProt P12314 16-292); experiment: as above
T2 construct: extracellular domain; Soluble extracellular domain with C-terminal His tag, used as analyte; also called FcgRI; CD64; not shown: His tag at the C terminus
T2 sequence (P12314 16-292): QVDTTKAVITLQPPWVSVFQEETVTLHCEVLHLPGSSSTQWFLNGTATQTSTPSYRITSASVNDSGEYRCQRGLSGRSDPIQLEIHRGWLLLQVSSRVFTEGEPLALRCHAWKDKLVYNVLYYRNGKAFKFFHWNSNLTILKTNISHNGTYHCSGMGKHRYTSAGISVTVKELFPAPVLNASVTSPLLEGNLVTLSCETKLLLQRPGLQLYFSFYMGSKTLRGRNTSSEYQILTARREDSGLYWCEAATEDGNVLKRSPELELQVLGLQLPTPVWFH
Protocol: as §1, §2

| Binder | He/Con_2b [1] | He/Con_1a [2] |
| --- | --- | --- |
| GpH7-A5/GpH7-B3 variant Y300_01G/GpL16-k0 (antibody, human IgG1, kappa, He Ab: mutation in one H chain only; also called He Ab) heavy 1: not shown heavy 2: not shown light: DIVMTQSPLSLPVTPGEPASISCQASESLVHSNRNTYLHWYLQKPGQSPQLLIYKVSNRFSGVPDRFSGSGSGTDFTLKISRVEAEDVGVYYCSQNTHVPPTFGQGTKVEIERTVAAPSVFIFPPSDEQLKSGTASVVCLLNNFYPREAKVQWKVDNALQSGNSQESVTEQDSKDSTYSLSSTLTLSKADYEKHKVYACEVTHQGLSSPVTKSFNRGEC | 48.4 % of GpH7-A5/GpH7-B3/GpL16-k0 | 116 % of GpH7-A5/GpH7-B3/GpL16-k0 |
| GpH7-A5/GpH7-B3 variant A327_06M/GpL16-k0 (antibody, human IgG1, kappa, He Ab: mutation in one H chain only; also called He Ab) heavy 1: not shown heavy 2: not shown light: DIVMTQSPLSLPVTPGEPASISCQASESLVHSNRNTYLHWYLQKPGQSPQLLIYKVSNRFSGVPDRFSGSGSGTDFTLKISRVEAEDVGVYYCSQNTHVPPTFGQGTKVEIERTVAAPSVFIFPPSDEQLKSGTASVVCLLNNFYPREAKVQWKVDNALQSGNSQESVTEQDSKDSTYSLSSTLTLSKADYEKHKVYACEVTHQGLSSPVTKSFNRGEC | 59.5 % of GpH7-A5/GpH7-B3/GpL16-k0 | 103 % of GpH7-A5/GpH7-B3/GpL16-k0 |
| GpH7-A5/GpH7-B3 variant A327_08L/GpL16-k0 (antibody, human IgG1, kappa, He Ab: mutation in one H chain only; also called He Ab) heavy 1: not shown heavy 2: not shown light: DIVMTQSPLSLPVTPGEPASISCQASESLVHSNRNTYLHWYLQKPGQSPQLLIYKVSNRFSGVPDRFSGSGSGTDFTLKISRVEAEDVGVYYCSQNTHVPPTFGQGTKVEIERTVAAPSVFIFPPSDEQLKSGTASVVCLLNNFYPREAKVQWKVDNALQSGNSQESVTEQDSKDSTYSLSSTLTLSKADYEKHKVYACEVTHQGLSSPVTKSFNRGEC | 63.1 % of GpH7-A5/GpH7-B3/GpL16-k0 | 98.6 % of GpH7-A5/GpH7-B3/GpL16-k0 |
| GpH7-A5/GpH7-B3 variant A327_05P/GpL16-k0 (antibody, human IgG1, kappa, He Ab: mutation in one H chain only; also called He Ab) heavy 1: not shown heavy 2: not shown light: DIVMTQSPLSLPVTPGEPASISCQASESLVHSNRNTYLHWYLQKPGQSPQLLIYKVSNRFSGVPDRFSGSGSGTDFTLKISRVEAEDVGVYYCSQNTHVPPTFGQGTKVEIERTVAAPSVFIFPPSDEQLKSGTASVVCLLNNFYPREAKVQWKVDNALQSGNSQESVTEQDSKDSTYSLSSTLTLSKADYEKHKVYACEVTHQGLSSPVTKSFNRGEC | 69.3 % of GpH7-A5/GpH7-B3/GpL16-k0 | 99.3 % of GpH7-A5/GpH7-B3/GpL16-k0 |
| GpH7-A5/GpH7-B3 variant I336_14T/GpL16-k0 (antibody, human IgG1, kappa, He Ab: mutation in one H chain only; also called He Ab) heavy 1: not shown heavy 2: not shown light: DIVMTQSPLSLPVTPGEPASISCQASESLVHSNRNTYLHWYLQKPGQSPQLLIYKVSNRFSGVPDRFSGSGSGTDFTLKISRVEAEDVGVYYCSQNTHVPPTFGQGTKVEIERTVAAPSVFIFPPSDEQLKSGTASVVCLLNNFYPREAKVQWKVDNALQSGNSQESVTEQDSKDSTYSLSSTLTLSKADYEKHKVYACEVTHQGLSSPVTKSFNRGEC | 89.5 % of GpH7-A5/GpH7-B3/GpL16-k0 | 104 % of GpH7-A5/GpH7-B3/GpL16-k0 |

Further lines, results first:

| He/Con_2b [1] | He/Con_1a [2] | Binder |
| --- | --- | --- |
| 85.8 % of GpH7-A5/GpH7-B3/GpL16-k0 | 101 % of GpH7-A5/GpH7-B3/GpL16-k0 | GpH7-A5/GpH7-B3 variant I336_16H/GpL16-k0 (antibody, human IgG1, kappa, He Ab: mutation in one H chain only; also called He Ab) heavy 1: not shown heavy 2: not shown light: DIVMTQSPLSLPVTPGEPASISCQASESLVHSNRNTYLHWYLQKPGQSPQLLIYKVSNRFSGVPDRFSGSGSGTDFTLKISRVEAEDVGVYYCSQNTHVPPTFGQGTKVEIERTVAAPSVFIFPPSDEQLKSGTASVVCLLNNFYPREAKVQWKVDNALQSGNSQESVTEQDSKDSTYSLSSTLTLSKADYEKHKVYACEVTHQGLSSPVTKSFNRGEC |
| 60.8 % of GpH7-A5/GpH7-B3/GpL16-k0 | 96.3 % of GpH7-A5/GpH7-B3/GpL16-k0 | GpH7-A5/GpH7-B3 variant A327_15Y/GpL16-k0 (antibody, human IgG1, kappa, He Ab: mutation in one H chain only; also called He Ab) heavy 1: not shown heavy 2: not shown light: DIVMTQSPLSLPVTPGEPASISCQASESLVHSNRNTYLHWYLQKPGQSPQLLIYKVSNRFSGVPDRFSGSGSGTDFTLKISRVEAEDVGVYYCSQNTHVPPTFGQGTKVEIERTVAAPSVFIFPPSDEQLKSGTASVVCLLNNFYPREAKVQWKVDNALQSGNSQESVTEQDSKDSTYSLSSTLTLSKADYEKHKVYACEVTHQGLSSPVTKSFNRGEC |
| 97.6 % of GpH7-A5/GpH7-B3/GpL16-k0 | 108 % of GpH7-A5/GpH7-B3/GpL16-k0 | GpH7-A5/GpH7-B3 variant I336_18N/GpL16-k0 (antibody, human IgG1, kappa, He Ab: mutation in one H chain only; also called He Ab) heavy 1: not shown heavy 2: not shown light: DIVMTQSPLSLPVTPGEPASISCQASESLVHSNRNTYLHWYLQKPGQSPQLLIYKVSNRFSGVPDRFSGSGSGTDFTLKISRVEAEDVGVYYCSQNTHVPPTFGQGTKVEIERTVAAPSVFIFPPSDEQLKSGTASVVCLLNNFYPREAKVQWKVDNALQSGNSQESVTEQDSKDSTYSLSSTLTLSKADYEKHKVYACEVTHQGLSSPVTKSFNRGEC |
| 68.2 % of GpH7-A5/GpH7-B3/GpL16-k0 | 103 % of GpH7-A5/GpH7-B3/GpL16-k0 | GpH7-A5/GpH7-B3 variant I336_15Y/GpL16-k0 (antibody, human IgG1, kappa, He Ab: mutation in one H chain only; also called He Ab) heavy 1: not shown heavy 2: not shown light: DIVMTQSPLSLPVTPGEPASISCQASESLVHSNRNTYLHWYLQKPGQSPQLLIYKVSNRFSGVPDRFSGSGSGTDFTLKISRVEAEDVGVYYCSQNTHVPPTFGQGTKVEIERTVAAPSVFIFPPSDEQLKSGTASVVCLLNNFYPREAKVQWKVDNALQSGNSQESVTEQDSKDSTYSLSSTLTLSKADYEKHKVYACEVTHQGLSSPVTKSFNRGEC |
